Residue numbers refer to the chain shown, from its start.
B1: BisG1-FAPα-FERL/DR4-FERR (bispecific antibody, human IgG1, kappa, lambda)
heavy 1: EVQLLESGGGLVQPGGSPRLSCEASGFTFSSYALSWVRQAPGKGLEWVSAISGSGGGRYYADSVKGRFTISRDNSKNTLFLQMNSLRAEDTAVYYCAKEGYSSSGTYWDHWGQGTLVTVSSASTKGPSVFPLAPSSKSTSGGTAALGCLVKDYFPEPVTVSWNSGALTSGVHTFPAVLQSSGLYSLSSVVTVPSSSLGTQTYICNVNHKPSNTKVDKRVEPKSCDKTHTCPPCPAPEFERGPSVFLFPPKPKDTLMISRTPEVTCVVVDVSHEDPEVKFNWYVDGVEVHNAKTKPREEQYNSTYRVVSVLTVLHQDWLNGKEYKCKVSNKALPAPIEKTISKAKGQPREPQVYTLPPSREEMTKNQVSLTCLVKGFYPSDIAVEWESNGQPENNYKTTPPVLDSDGSFLLYSKLTVDKSRWQQGNVFSCSVMHEALHNHYTQKSLSLSPG
light 1: AIQMTQSPSSVSASVGDRVTITCRASQGVSSWLAWYQQKPGRAPKLLIYVASTLQSGVPSRFSGSGSGTDFTLTINSLQPEDFATYYCQQANSFPPTFGQGTRLEMKRTVAAPSVFIFPPSDEQLKSGTASVVCLLNNFYPREAKVQWKVDNALQSGNSQESVTEQDSKDSTYSLSSTLTLSKADYEKHKVYACEVTHQGLSSPVTKSFNRGEC
heavy 2: QVQLQESGPGLVKPSGTLSLTCAVSGGSISSYSWWSWIRQPPGKGLEWIGELYHSGSTNYNPSLKSRVTISVDKSKNQFSLKLRSVTAADTAVYYCVRGVATIDYWGQGTLVTVSSASTKGPSVFPLAPSSKSTSGGTAALGCLVKDYFPEPVTVSWNSGALTSGVHTFPAVLQSSGLYSLSSVVTVPSSSLGTQTYICNVNHKPSNTKVDKRVEPKSCDKTHTCPPCPAPEFERGPSVFLFPPKPKDTLMISRTPEVTCVVVDVSHEDPEVKFNWYVDGVEVHNAKTKPREEQYNSTYRVVSVLTVLHQDWLNGKEYKCKVSNKALPAPIEKTISKAKGQPREPQVYTLPPSREEMTKNQVSLTCLVKGFYPSDIAVEWESNGQPENNYKTTPPVLDSDGSFFLYSRLTVDKSRWQQGNVFSCSVMHEALHNHYTQKSLSLSPG
light 2: QSALTQPPSASGSPGQSVTISCTGTSSDVGGYNFVSWYQQDPGKAPKLLIYEVTKRPSGVPDRFSGSKSGNTASLTVSGLQAEDEADYYCSSYAGSNNVMFGGGTKLTVLGQPKAAPSVTLFPPSSEELQANKATLVCLISDFYPGAVTVAWKADSSPVKAGVETTTPSKQSNNKYAASSYLSLTPEQWKSHRSYSCQVTHEGSTVEKTVAPTECS
notes: Human IgG1 bispecific made by controlled Fab-arm exchange of IgG1-FAPα-FERL and IgG1-DR4-FERR; monovalent for FAPα and for DR4; also called GEN1057
B2: IgG1-FAPα-FERL (antibody)
heavy: B1 heavy 1
light: B1 light 1
notes: Bivalent monoclonal IgG1 kappa
B3: BisG1-FAPα-FEAL/b12-FEAR (bispecific antibody, human IgG1, kappa)
heavy 1: B1 heavy 1 with R240G, D269A
light 1: B1 light 1
heavy 2: QVQLVQSGAEVKKPGASVKVSCQASGYRFSNFVIHWVRQAPGQRFEWMGWINPYNGNKEFSAKFQDRVTFTADTSANTAYMELRSLRSADTAVYYCARVGPYSWDDSPQDNYYMDVWGKGTTVIVSSASTKGPSVFPLAPSSKSTSGGTAALGCLVKDYFPEPVTVSWNSGALTSGVHTFPAVLQSSGLYSLSSVVTVPSSSLGTQTYICNVNHKPSNTKVDKRVEPKSCDKTHTCPPCPAPEFEGGPSVFLFPPKPKDTLMISRTPEVTCVVVAVSHEDPEVKFNWYVDGVEVHNAKTKPREEQYNSTYRVVSVLTVLHQDWLNGKEYKCKVSNKALPAPIEKTISKAKGQPREPQVYTLPPSREEMTKNQVSLTCLVKGFYPSDIAVEWESNGQPENNYKTTPPVLDSDGSFFLYSRLTVDKSRWQQGNVFSCSVMHEALHNHYTQKSLSLSPG
light 2: EIVLTQSPGTLSLSPGERATFSCRSSHSIRSRRVAWYQHKPGQAPRLVIHGVSNRASGISDRFSGSGSGTDFTLTITRVEPEDFALYYCQVYGASSYTFGQGTKLERKRTVAAPSVFIFPPSDEQLKSGTASVVCLLNNFYPREAKVQWKVDNALQSGNSQESVTEQDSKDSTYSLSSTLTLSKADYEKHKVYACEVTHQGLSSPVTKSFNRGEC
notes: Fab-arm exchange of IgG1-FAPα-FEAL and IgG1-b12-FEAR

Target: T1, pig FAPα on Expi293F cells (pig (Sus scrofa), UniProt A5D7B7 1-760 (bovine entry))
T1 chain: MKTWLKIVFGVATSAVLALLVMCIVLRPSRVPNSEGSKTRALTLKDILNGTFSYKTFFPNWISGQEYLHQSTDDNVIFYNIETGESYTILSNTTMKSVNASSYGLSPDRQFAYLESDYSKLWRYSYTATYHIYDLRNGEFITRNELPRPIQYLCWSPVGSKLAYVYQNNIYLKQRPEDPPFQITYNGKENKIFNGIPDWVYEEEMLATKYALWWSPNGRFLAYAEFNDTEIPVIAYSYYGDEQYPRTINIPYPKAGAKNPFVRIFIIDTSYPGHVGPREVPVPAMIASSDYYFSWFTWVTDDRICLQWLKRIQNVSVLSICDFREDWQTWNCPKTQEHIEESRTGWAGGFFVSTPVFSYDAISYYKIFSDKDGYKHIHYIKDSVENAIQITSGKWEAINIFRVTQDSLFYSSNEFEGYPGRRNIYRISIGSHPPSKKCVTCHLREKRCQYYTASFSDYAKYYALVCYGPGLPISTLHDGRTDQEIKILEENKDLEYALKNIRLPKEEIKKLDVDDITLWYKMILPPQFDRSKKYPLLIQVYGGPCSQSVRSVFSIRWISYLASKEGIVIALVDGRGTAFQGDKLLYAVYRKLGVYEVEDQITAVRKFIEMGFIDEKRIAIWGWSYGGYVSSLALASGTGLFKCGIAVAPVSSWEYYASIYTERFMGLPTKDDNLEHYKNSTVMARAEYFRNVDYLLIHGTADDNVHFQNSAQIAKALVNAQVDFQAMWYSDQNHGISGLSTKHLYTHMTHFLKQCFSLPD
Test: flow cytometry on Expi293F cells transiently expressing pig FAPα, gMFI PE
Protocol: Binding of BisG1-FAPα-FERL/DR4-FERR, BisG1-FAPα-FEAL/b12-FEAR and IgG1-FAPα-FERL to FAPα of species commonly used for nonclinical toxicology studies was assessed by flow cytometry using Expi293F cells transiently expressing FAPα from different animal species. IgG1-b12 was included as negative control.
Expi293F cells expressing recombinant FAPα from various species (human, cynomolgus monkey, dog, pig, rat or mouse) were seeded (20,000 cells/well) in 96-Well round bottom plates (Greiner Bio-one, Cat #650101). Antibody dilutions were prepared using FACS buffer, consisting of PBS (Capricorn Scientific, Cat #PBS-10XA, diluted to 1×PBS in distilled water)+1% BSA (Roche, Cat #10735086001)+0.02% Sodium Azide (Bio-World, Cat #41920044-3). Plates were centrifuged, supernatant was removed, and cells were resuspended in 100 μL of antibody dilutions (concentration range 30-0.00017 μg/mL with three-fold serial dilutions using FACS buffer) of BisG1-FAPα-FERL/DR4-FERR, BisG1-FAPα-FEAL/b12-FEAR, IgG1-FAPα-FERL and IgG1-b12 and incubated for 30 min at 4° C. […] After 30 min incubation at 4° C., cells were washed with FACS buffer and resuspended in FACS buffer supplemented with TO-PRO-3 Iodide viability marker (Invitrogen, Cat #T3605, diluted 1:4,000). Antibody binding to viable cells (gMFI of PE on TO-PRO-3 negative cells) was analyzed by flow cytometry on a FACS Celesta and FACS_Diva software (first two experiments) or iQue® 3 and FlowJo software (last experiment). gMFI was determined and visualized using GraphPad Prism. Binding curves were analyzed using nonlinear regression analysis. The concentration (pg/mL) at which 50% of the maximal effect was observed (EC₅₀) was derived from the fitted curves.

Row | Binder | binding result | EC50 (read off the curve) [µg/mL]
1 | B1 | binds | 
2 | B2 |  | ~0.3
3 | B3 | binds | 
